We go through two substances from patent US20170269069.

Series [1] relates to recombinant histone H3, wild type.
The subject of series [2] is rH3 K27 dimethyl-lysine analogue.
The subject of series [3] is rH3 K27 trimethyl-lysine analogue.
Series [4] has as its system reconstituted native nucleosome arrays (modified native histones purified from HeLa cells).
The subject of series [5] is rH3 K9 monomethyl-lysine analogue.
In series [6] the test system is rH3 K4 monomethyl-lysine analogue.
For series [7], the system named is nucleosome arrays containing the rH3 K18 acetyl-lysine analogue.
Series [8] concerns rH3 K18 acetyl-lysine analogue.
For series [9], the system named is rH3 K36 dimethyl-lysine analogue.
Series [10] concerns rH3 K4 dimethyl-lysine analogue.
Series [11] has as its system rH3 K36 trimethyl-lysine analogue.
Series [12] deals with rH3 K27 monomethyl-lysine analogue.
Series [13] deals with rH3 K4 trimethyl-lysine analogue.
The subject of series [14] is rH3 K36 monomethyl-lysine analogue.
The test system of series [15] is H3 peptide (aa10-35) K18ac.
Series [16] has as its system nucleosome arrays containing unmodified rH3.
For series [17], the system named is rH3 K9 trimethyl-lysine analogue.
For series [18], the system named is rH3 K9 dimethyl-lysine analogue.

recombinant MMP-9 (aa115-730), sequence (chain, as listed by the source): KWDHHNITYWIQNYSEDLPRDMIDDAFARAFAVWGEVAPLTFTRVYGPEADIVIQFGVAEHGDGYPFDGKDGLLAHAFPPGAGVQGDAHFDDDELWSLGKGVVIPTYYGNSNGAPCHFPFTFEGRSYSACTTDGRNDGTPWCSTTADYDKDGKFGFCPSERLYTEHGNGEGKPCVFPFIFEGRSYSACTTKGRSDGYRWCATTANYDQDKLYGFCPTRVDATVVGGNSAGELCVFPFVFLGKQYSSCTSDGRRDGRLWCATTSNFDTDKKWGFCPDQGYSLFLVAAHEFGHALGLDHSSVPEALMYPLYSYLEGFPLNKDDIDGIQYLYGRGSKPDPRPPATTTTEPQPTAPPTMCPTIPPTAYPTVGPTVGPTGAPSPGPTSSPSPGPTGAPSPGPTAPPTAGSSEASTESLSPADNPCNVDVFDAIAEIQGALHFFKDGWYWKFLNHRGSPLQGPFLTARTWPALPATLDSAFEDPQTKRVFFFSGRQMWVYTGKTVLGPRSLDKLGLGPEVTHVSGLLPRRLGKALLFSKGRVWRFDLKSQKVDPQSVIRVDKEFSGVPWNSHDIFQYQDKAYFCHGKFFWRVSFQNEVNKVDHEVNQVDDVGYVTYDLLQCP

For recombinant USP14, the “H3NT protease activity (in vitro H3NT cleavage assay, Western blot with the H3CT antibody)” value in series [1] is on record as “only rMMP-9 possessed H3NT protease activity”.
In the case of recombinant MMP-9 (aa115-730), the “MMP-9 activity (in vitro H3NT cleavage assay)” value in series [2], in series [3], in series [5], in [6], in series [9] and in series [10] was “nearly identical to rH3 control in all cases” throughout. Also, the “MMP-9 activity (in vitro H3NT cleavage assay)” value in [11], in series [12], in [13], in [14], in series [17] and in series [18] was “nearly identical to rH3 control in all cases” in each case. For the same substance, the “rMMP-9 protease activity (in vitro H3NT cleavage assay)” value is listed as “rMMP-9 displayed robust activity for modified native nucleosome arrays” in series [4] and “completely resistant to rMMP-9 protease activity” in series [16]. For the same substance, the “H3NT protease activity (in vitro H3NT cleavage assay, Western blot with the H3CT antibody)” value in series [1] is reported as “only rMMP-9 possessed H3NT protease activity”. Further, the “H3NT cleavage (in vitro H3NT cleavage assay)” value in series [7] was “the specific acetylation of H3K18 was both necessary and sufficient for H3NT cleavage by rMMP-9 in a nucleosome array context”. For the same substance, the “H3NT proteolysis (in vitro H3NT cleavage assay)” value in [8] was “the specific acetylation of K18 robustly increased H3NT proteolysis by rMMP-9”. Further, in series [15], the “cleaved H3 (peptide hydrolysis measured with fluorescamine; kinetic analysis), against unmodified H3 or H3K27me1 peptides” value is 3-fold increase of cleaved H3 compared to unmodified H3 or H3K27me1 peptides.
